Assay results taken from a protein production outcome set (Wang et al. 2014).

Assay: label from the status in PepcDB records

Sequence | protein production
MASRFSRVVLVLIDALRFDFAQPQHSHVPREPPVSLPFLGKLSSLQRILEIQPHHARLYRSQVDPPTTTMQRLKALTTGSLPTFIDAGSNFASHAIVEDNLIKQLTSAGRRVVFMGDDTWKDLFPGAFSKAFFFPSFNVRDLDTVDNGILEHLYPTMDSGEWDVLIAHFLGVDHCGHKHGPHHPEMAKKLSQMDQVIQGLVERLENDTLLVVAGDHGMTTNGDHGGDSELEVSAALFLYSPTAVFPSTPPEEPEVIPQVSLVPTLALLLGLPIPFGNIGEVMAELFSGGEDSQPHSSALAQASALHLNAQQVSRFLHTYSAATQDLQAKELHQLQNLFSKASADYQWLLQSPRAEATLPTVIAELQQFLRGARAMCIESWARFSLVRMAGGTALLAASCFICLLASQWAISPGFPFCPLLLTPVAWGLVGAIAYAGLLGTIELKLDLVLLGAVAAVSSFLPFLWKAWAGWGSKRPLATLFPIPGPVLLLLLFRLAVFFSDSFVVAEARATPFLLGSFILLLVVQLHWEGQLLPPKLLTMPRLGTSATTNPPRHNGAYALRLGIGLLLCTRLAGLFHRCPEETPVCHSSPWLSPLASMVGGRAKNLWYGACVAALVALLAAVRLWLRRYGNLKSPEPPMLFVRWGLPLMALGTAAYWALASGADEAPPRLRVLVSGASMVLPRAVAGLAASGLALLLWKPVTVLVKAGAGAPRTRTVLTPFSGPPTSQADLDYVVPQIYRHMQEEFRGRLERTKSQGPLTVAAYQLGSVYSAAMVTALTLLAFPLLLLHAERISLVFLLLFLQSFLLLHLLAAGIPVTTPGPFTVPWQAVSAWALMATQTFYSTGHQPVFPAIHWHAAFVGFPEGHGSCTWLPALLVGANTFASHLLFAVGCPLLLLWPFLCESQGLRKRQQPPGNEADARVRPEEEEEPLMEMRLRDAPQHFYAALLQLGLKYLFILGIQILACALAASILRRHLMVWKVFAPKFIFEAVGFIVSSVGLLLGIALVMRVDGAVSSWFRQLFLAQQR | failed
MASRSDSAALSRDVPGAAFCGSRDMQKKHLFLALLVTALWGLNFPITKLGLASIDPLLLTALRFTLAALPWVFLVPRPPVAFAWLAAYGLIFGVAMWALINLGIDHGVAPGTAALLIQFSAFFSLGWGVLLFGERLRLQQVLATAIALWGLLRIIGDSPGHATSLGYALLLVSAFSWSVGNVIIKRCGVREVFAFVVWASLFAPLPLLALTWISHGAAPFLQLAGQVSAGAALSLMFQVYAATLFCYWGWNLLLREYPVSRVAPLSLLIPVFGMAGSVLILGQRLGAEEGISMGLILLALAVGQFDWRRLITLGRRSL | failed
MASSFLEEVDRLITLSGITFHASGTGTPELIKIYQDALGNEFPETYKLFLEKYGTLTFNGVSFYGISKRGLSAASIPDVKFATEQARTFGDINKEMIMIKNSGYGSIFSIDTSIIGSEGEPVIVETNLSFKDNTEKKVVANSFGEFLLEEIELSLTDLG | not failed
MASSSKNITYPPRLYPEGLLKSSLCVFIKFADAKYIWAAHTVHYFLTNQLSVNNFHEIMSVIDGWPIRFSLTEFVDITSLNCDLLDKSTTCEIGHYEFWNEMGVGTYDGPLFIELKHVMDISKEWSYEKRLMVGRLCLLSVGVHGIYHGCRIPLSSAKLVLDPKAFEKYLWGRVAFESLVISVKIVDYKKDICDSWMCPRLVDLDL | failed
MASSSSLSLSFPSSSLSRTWDYDVFPSFHGEDVRKAFLSQILKKEFGRKAINFFVDHEMERGEFIGPVLKQAIKGSKIALVLLSKNYASSWCCLDELVEIMKKESGQTVITIFYEVDPNEVKKQTGDFGKAFKETCQGKTEEKVQTWRKALEGVGLATIAGFHSSNWFVFFI | not failed
MASSSSTYRSSSSSDGGNNNPSDSVVTVDERKRKRMLSNRESARRSRMRKQKHVDDLTAQINQLSNDNRQILNSLTVTSQLYMKIQAENSVLTAQMEELSTRLQSLNEIVDLVQSNGAGFGVDQIDGCGFDDRTVGIDGYYDDMNMMSNVNHWGGSVYTNQPIMANDINMY | failed
MASSYTLMLFLCLSIFLIASTEMMAVEGRICERRSKTWTGFCGNTRGCDSQCKRWERASHGACHAQGFPVSGIPSALPTVTHAKQREKMSAMGAYGITYFVGSIIGLLFVQGFEPEKGTLFKEQKGGVSKIDPKP | failed
MASTAVSELVFFIVTLLITASAVAVLSDQTIHIVYGMQSSSQRTTDMIQENFAIINNPDQIPYDNGYVFYIKNTGSVGFAFDNTSISVLVDGSAVTGKYVKFISLENSSILVPGQVGEIVVNETLSGYNSITISLGTGVSHTFNFEV | failed
MASYYEILDVPRSASADDIKKAYRRKALQWHPDKNPDNKEFAEKKFKEVAEAYEVLSDKHKREIYDRYGREGLTGTGTGPSRAEAGSGGPGFTFTFRSPEEVFREFFGSGDPFAELFDDLGPFSELQNRGSRHSGPFFTFSSSFPGHSDFSSSSFSFSPGAGAFRSVSTSTTFVQGRRITTRRIMENGQERVEVEEDGQLKSVTINGVPDDLALGLELSRREQQPSVTSRSGGTQVQQTPASCPLDSDLSEDEDLQLAMAYSLSEMEAAGKKPAGGREAQHRRQGRPKAQHQDPGLGGTQEGARGEATKRSPSPEEKASRCLIL | not failed
MASYYSGFLGCEEPHFLESCSLCRKHLGLNSDIFMYRGDKAFCSNECREEQIESDEAKERKWKKSSRSLRKNSSETKESAAGNTVRTGTLVVA | failed
MATEPEAAEPVVPSLVDRYFTRWYKPDVKGKFCEDHCILQHSNRICVITLAESHPVLQSGKTIKSISYQISTNCSRLQNKVSGKFKRGAQFLTELAPLCKIYCSDGEEYTVSSCVRGRLMEVNENILHKPSILQEKPSTEGYIAVVLPKFEESKSITEGLLTQKQYEEVMVKRINATTATS | failed
MATEPIRIGVVGASPDRGWAADAHLPALQHLPQYKITAVGTRRADSAHRAARRYGATHAFTDPRSLAAHPDVELVAIVVKVPDHARLVEAALAAGKHVLCEWPLARTTEEAAQLTAAAHGAGVVNAVGLQARHTPTVVRARELIRQGYVGRVTSVTVYSTRGVAAGGRLPAAFAYTLDSTNGAGTLEVAGGHTLDAVQYLLGREMTGLSAALSVQHPRITLDEDARQTGATSPDHVALHATLEGGAALVVHIHDAKNSGAGTRIEISGTQGELAIVSTGPRSGSGLQISELALLGAQGTEPSGQELPFPGSWGTAVPADGLDAAQHTMAVQYAALAADIREGGSRVPRFADGIELHRLLDAVRLSSATGCRLERRAGERWPVSSPWPRRRRSR | failed
MATEPPKIVWNEGKRRFETEDHEAFIEYKMRNNGKVMDLVHTYVPSFKRGLGLASHLCVAAFEHASSHSISIIPSCSYVSDTFLPRNPSWKPLIHSEVFKSSI | not failed
MATFDTRHRTALTMSADRLEQLKTFHEEDPEDPFTRYALAQEHLKHDNASRALALFEELVETDPDYVGTYYHLGKLYERLDRTDDAIDTYAQGIEVAREEGTQKDLSELQDAKLKAEGLEHHHHHH | not failed
MATFEEVSVLGFEEFDKAVKEHESKTIFAYFSGSKDTEGKSWCPDCVEAEPVIREGLKHVTEDCVFIYCQVGDKPYWKDPNNDFRQKLKITAVPTLLKYGTPQKLVESECCQSSLVEMIFSED | not failed
MATFFLVSFLSFSKWKEKRQVGLWGPEAAVTEEEEEEAGARRSGPGLAGRRLRGKGRRGRVASPAGRPDTLSRRGAGERAGCLGAGDRGLRHSDRHSPLGRGRAAPGMATSRQTASPRTRMDYLYSCQVDAMHSGMSVTRLVTQPDVLPAHRRRDIKMAAPRSCVLWSYCGHGWSRLAGDCRLPGFRRSWLGATLSARSLSQEKRAAETHFGFETVSEKEKGGKVYQVFQSVARKYDLMNDMMSLGIHRAWKDLLIRKMHPLPGTQLLDVAGGTGDIAFRFLSYVQTQHERKQRRQLRTRQNLSWEEIARKYQSKEDPLGGSLVMVCDINREMLKVGKQKALARGHTADLCECDAKLVYTVSFSSRSFTQALQEAHRVLKPGGRFLCLEFSQVNDPLISRLYDLYSFQVIPVIGEVIAGDWKSYQYLVESIRKFPNQEEFKDMIEDAGFQKVTYESLTSGIVAIHSGFKL | failed
MATFRKRGKYWEYRVKYTDSAGKQLVASHGGYRLKSSAQDAAEAVEDDLKRGGDPSKQDVLLLDYWDQWAEAYRINGKSINTVYRYKLFRKHLKSRFDGRKLNSIRPIEWQKFINDFAAGKDRKEKTTRKRPRERSKDIVTKMNSYVRGMVKAAINERILFSDFTFGTKTSGVRSSGKVKVLDSRDFAKVKAIAIERASYRNIGALAVYIGSMTGMRISEVLALTWPDIDTKLCVIHVTRSWDHLYGTGFKPTKTDSSVRDIEISPSVIELLNKIHQEQAASYLRTGYRDEDQMIMRDPRHNVITDSACNKALHVIQNKAGIPEDKQITFHGLRHSHVSYLISKGVDIYYISKRLGHSDVTITMKVYGHLLDSQRKQEAHKAVLFMDQI | failed
MATGGLAIIQSMKHKLPPSERKLADYILAHPHKAIESTVNEISALANSSDAAVIRLCKSLGLKGFQDLKMRVAGDLAKPTFQGYRDIVPHEPLPSISEKTAGNAIQAIQDTSDLMDYKELERAVSLLLKAHTVHFIGLGASGIVAKDAQQKWLRIHKQATAFTDTHLVASLIANADKDDIVFAISFSGETQEIVELFAMAKEKGITTISLTQFSQTSVSALADVPLYTAHSNEALIRSAATSSRLAQLFIIDVLFLGMAAEQYETTTGYIDKTRAAIQSMRIK | not failed
MATMNEKDYYEILGVSKDATSRDIQKAFQQKARKLHPDVNKEPDAEEKFKEVSEAYAVLSDEQKRARYDAMRSGNPFAGAPTASPYGGGYAGSAGYGNPFDGGFPFGGAWGQPRRGQAAYNPESGANVVVDIKLDAKEAKSGAHKTVRYTRFDTCGHCGGSGSVSSEHAHTCPSCGGRGHIDVDLSFLFGAGTFQTVCPECGGSGKVVADPCPDCGGSGRIRVTSEQTIEFPAGTHDGDEVRIPNMGHAGTNGASGGDLVGRAHVEAERLEGKARTGFYLMGIIAPFLVLSAISGVFSAFAMMCFIPFAMGLFMVLSDGVLHRSLLWWKRGAMQFANGFANGFMFALVSVWFASCSQQAMLSPYGMQ | failed
MATNIPCEVVAFSDRKLKPLIYVYSFPGLTRRTKLKGNILLDYTLLSFSYCGTYLASYSSLPEFELALWNWESSIILCKKSQPGMDVNQMSFNPMNWRQLCLSSPSTVSVWTIERSNQEHCFRARSVKLPLEDGSFFNETDVVFPQSLPKDLIYGPVLPLSAIAGLVGKEAETFRPKDDLYPLLHPTMHCWTPTSDLYIGCEEGHLLMINGDTLQVTVLNKIEEESPLEDRRNFISPVTLVYQKEGVLASGIDGFVYSFIIKDRSYMIEDFLEIERPVEHMTFSPNYTVLLIQTDKGSVYIYTFGKEPTLNKVLDACDGKFQAIDFITPGTQYFMTLTYSGEICVWWLEDCACVSKIYLNTLATVLACCPSSLSAAVGTEDGSVYFISVYDKESPQVVHKAFLSESSVQHVV | failed
MATNSSTEQSLTKKVWNLATTLAGQGIGFTDYITQLTYLLFLKMDAENVEMFGEESAIPTGYQWADLIAFDGLDLVKQYEETLKLLSELDNLIGTIYTKAQNKIDKPVYLKKVITMIDEEQWLIMDGDVKGAIYESILEKNGQDKKSGAGQYFTPRPLIQAMVDCINPQMGETVCDPACGTGGFLLTAYDYMKGQSASKEKRDFLRDKALHGVDNTPLVVTLASMNLYLHGIGTDRSPIVCEDSLEKEPSTLVDVILANPPFGTRPAGSVDINRPDFYVETKNNQLNFLQHMMLMLKTGGRAAVVLPDNVLFEAGAGETIRKRLLQDFNLHTILRLPTGIFYAQGVKANVLFFSKGQPTKEIWFYDYRTDIKHTLATNKLERHHLDDFVSCYNNRVEIYDAENNPQGRWRKYPVDEIIARDKTSLDITWIKPGGEVDDRSLAEL | not failed
MATPAYMSITGTKQGLITAGAFTADSVGNTYQEGHEDQVMVQGFSHELIIPRDPQSGQPTGQRVHKPVKITKVFDKSSPLLLAALTSGERLTEITIQWYRTSAAGTQEHYYTTKLEDAIIVDIKDYMHNCQDPANAHFTHLEDVEFTYRKITWTHEVSGTSGSDDWRSPVAG | not failed
